This is an account of results in US20060228358A1 (UCB, published 2006).

First the molecules themselves.
B1: double chimeric IC8 antibody molecule cHcL (antibody, V domains shown)
VH: DVQLVESGGGLVKPGGSLKLSCAASGFDFSRYDMSWVRQTPEKRLEWVAYISSGGGSTYFPDTVKGRFTISRDNAKNTLYLQMNNLQSEDTAMFYCARQNKKLTWFDYWGQGTLVTVSS
VL: DIQMTQSPASLSASVGETVTITCRTSGNIHNYLTWYQQNLGKSPQLLVYNAKTLADGVPSRFSGSGSGTQFSLTINSLQPEDFGNYYCQHFWSLPFTFGSGTKLEIKR
notes: Murine IC8 V-regions on human gamma-4 heavy and human kappa light constant regions (vectors pMRR14 and pMRR10), expressed in CHO-L761 cells
B2: CDR-grafted IC8 antibody gH1gL2 (antibody, V domains shown)
VH: EVQLVESGGGLVQPGGSLRLSCAASGFDFSRYDMSWVRQAPGKRLEWVAYISSGGGSTYFPDTVKGRFTISRDNAKNTLYLQMNSLRAEDTAMYYCARQNKKLTWFDYWGQGTLVTVSS
VL: DIQMTQSPSSLSASVGDRVTITCRTSGNIHNYLTWYQQKPGKAPQLLVYNAKTLADGVPSRFSGSGSGTQFTLTISSLQPEDFANYYCQHFWSLPFTFGQGTKVEIKR
notes: Human gamma-4 heavy and kappa light constant regions (pMRR14 and pMRR10), expressed in CHO-L761 cells
B3: CDR-grafted IC8 antibody gH3gL2 (antibody, V domains shown)
VH: EVQLVESGGGLVQPGGSLRLSCAASGFDFSRYDMSWVRQAPGKRLEWVAYISSGGGSTYFPDTVKGRFTISRDNAKNTLYLQMNSLRAEDTAVYYCARQNKKLTWFDYWGQGTLVTVSS
VL: DIQMTQSPSSLSASVGDRVTITCRTSGNIHNYLTWYQQKPGKAPQLLVYNAKTLADGVPSRFSGSGSGTQFTLTISSLQPEDFANYYCQHFWSLPFTFGQGTKVEIKR
notes: as for B2
B4: CDR-grafted IC8 antibody gH2gL3 (antibody, V domains shown)
VH: EVQLVESGGGLVQPGGSLRLSCAASGFDFSRYDMSWVRQAPGKGLEWVAYISSGGGSTYFPDTVKGRFTISRDNAKNTLYLQMNSLRAEDTAMYYCARQNKKLTWFDYWGQGTLVTVSS
VL: DIQMTQSPSSLSASVGDRVTITCRTSGNIHNYLTWYQQKPGKAPQLLIYNAKTLADGVPSRFSGSGSGTQFTLTISSLQPEDFANYYCQHFWSLPFTFGQGTKVEIKR
notes: as for B2
B5: CDR-grafted IC8 antibody gH1gL3 (antibody, V domains shown)
VH: EVQLVESGGGLVQPGGSLRLSCAASGFDFSRYDMSWVRQAPGKRLEWVAYISSGGGSTYFPDTVKGRFTISRDNAKNTLYLQMNSLRAEDTAMYYCARQNKKLTWFDYWGQGTLVTVSS
VL: DIQMTQSPSSLSASVGDRVTITCRTSGNIHNYLTWYQQKPGKAPQLLIYNAKTLADGVPSRFSGSGSGTQFTLTISSLQPEDFANYYCQHFWSLPFTFGQGTKVEIKR
notes: as for B2
B6: CDR-grafted IC8 antibody gH2gL1 (antibody, V domains shown)
VH: EVQLVESGGGLVQPGGSLRLSCAASGFDFSRYDMSWVRQAPGKGLEWVAYISSGGGSTYFPDTVKGRFTISRDNAKNTLYLQMNSLRAEDTAMYYCARQNKKLTWFDYWGQGTLVTVSS
VL: DIQMTQSPSSLSASVGDRVTITCRTSGNIHNYLTWYQQKLGKAPQLLVYNAKTLADGVPSRFSGSGSGTQFTLTISSLQPEDFANYYCQHFWSLPFTFGQGTKVEIKR
notes: as for B2
B7: CDR-grafted IC8 antibody gH3gL1 (antibody, V domains shown)
VH: EVQLVESGGGLVQPGGSLRLSCAASGFDFSRYDMSWVRQAPGKRLEWVAYISSGGGSTYFPDTVKGRFTISRDNAKNTLYLQMNSLRAEDTAVYYCARQNKKLTWFDYWGQGTLVTVSS
VL: DIQMTQSPSSLSASVGDRVTITCRTSGNIHNYLTWYQQKLGKAPQLLVYNAKTLADGVPSRFSGSGSGTQFTLTISSLQPEDFANYYCQHFWSLPFTFGQGTKVEIKR
notes: as for B2
B8: CDR-grafted IC8 antibody gH1gL1 (antibody, V domains shown)
VH: EVQLVESGGGLVQPGGSLRLSCAASGFDFSRYDMSWVRQAPGKRLEWVAYISSGGGSTYFPDTVKGRFTISRDNAKNTLYLQMNSLRAEDTAMYYCARQNKKLTWFDYWGQGTLVTVSS
VL: DIQMTQSPSSLSASVGDRVTITCRTSGNIHNYLTWYQQKLGKAPQLLVYNAKTLADGVPSRFSGSGSGTQFTLTISSLQPEDFANYYCQHFWSLPFTFGQGTKVEIKR
notes: as for B2
B9: CDR-grafted IC8 antibody gH3gL3 (antibody, V domains shown)
VH: EVQLVESGGGLVQPGGSLRLSCAASGFDFSRYDMSWVRQAPGKRLEWVAYISSGGGSTYFPDTVKGRFTISRDNAKNTLYLQMNSLRAEDTAVYYCARQNKKLTWFDYWGQGTLVTVSS
VL: DIQMTQSPSSLSASVGDRVTITCRTSGNIHNYLTWYQQKPGKAPQLLIYNAKTLADGVPSRFSGSGSGTQFTLTISSLQPEDFANYYCQHFWSLPFTFGQGTKVEIKR
notes: Human gamma-4 heavy and kappa light constant regions (pMRR14 and pMRR10), expressed in CHO-L761 cells; also called gL3gH3
B10: gH3gL3 Fab′ (E. coli-produced) (Fab, V domains shown)
VH: EVQLVESGGGLVQPGGSLRLSCAASGFDFSRYDMSWVRQAPGKRLEWVAYISSGGGSTYFPDTVKGRFTISRDNAKNTLYLQMNSLRAEDTAVYYCARQNKKLTWFDYWGQGTLVTVSS
VL: DIQMTQSPSSLSASVGDRVTITCRTSGNIHNYLTWYQQKPGKAPQLLIYNAKTLADGVPSRFSGSGSGTQFTLTISSLQPEDFANYYCQHFWSLPFTFGQGTKVEIKR
notes: Unpegylated Fab′ with a modified hinge, purified from E. coli periplasm; also called gIC8 Fab′; IC8gL3gH3 Fab′
B11: murine monoclonal antibody IC8 (antibody, V domains shown)
VH: DVQLVESGGGLVKPGGSLKLSCAASGFDFSRYDMSWVRQTPEKRLEWVAYISSGGGSTYFPDTVKGRFTISRDNAKNTLYLQMNNLQSEDTAMFYCARQNKKLTWFDYWGQGTLVTVSS
VL: DIQMTQSPASLSASVGETVTITCRTSGNIHNYLTWYQQNLGKSPQLLVYNAKTLADGVPSRFSGSGSGTQFSLTINSLQPEDFGNYYCQHFWSLPFTFGSGTKLEIKR
notes: Mouse monoclonal antibody from a hybridoma; also called mIC8; donor antibody

“And” between values parts separate entries of the source, which are not always exact repeats. Equal entries are not always repeated.

In the first test the target is T1, recombinant human IL-1β (human, UniProt P01584 117-269).
T1 construct: Only the background speaks of the mature 17 kDa form; also called hIL-1β; interleukin-1β
Description: BIAcore, antibody captured by anti-hFc, IL-1β titrated in solution, 25 °C. The procedure:
The assay format used anti-IL-1β antibody captured by anti-hFc with a titration of recombinant human IL-1β in the solution phase. Mouse anti-human IgG, Fc fragment-specific (Celltech) was immobilised on flowcell 2 of a CM5 Sensor Chip via amine coupling chemistry to a level of 12757RU. A blocked reference surface was prepared on flowcell 1 by activation with EDC/NHS and deactivation with ethanolamine using the same volumes as for flowcell 2. HBS-EP buffer (10 mM HEPES pH 7.4, 0.15 M NaCl, 3 mM EDTA, 0.005% Surfactant P20, Biacore AB) was used as the running buffer and assays were performed at 25° C. Anti-IL-1β antibody was passed over flowcells 1 and 2 and captured on the immobilised anti-hFc surface using a flowrate of 10 μl/min. IL-1β from 400-0 nM was injected over the blocked and captured anti-IL-1β antibody surface using a flowrate of 30 μl/min for 3 min. The anti-hFc surface was regenerated with a 30 μl injection of 40 mM HCl. Kinetic parameters were calculated using BIAevaluation 3.1 software.
As for B1, the Kd (usually the equilibrium constant for the complex coming apart) was found to be 0.38 nM.
The same measure, in the same setting: to B2 belongs 0.34 nM; to B3, 0.32 nM.
Consider B4, for which the Kd is 1.14 nM and 1.07 nM.
For the molecule B5, the Kd was 0.3 nM.
Still for that read-out and setting: to B6 belongs 1.27 nM.
As to B7, the Kd was found to be 0.28 nM.
Still for that read-out and setting: then B8, with 0.35 nM; and B9, with 0.28 nM.

A further test has as its target T1, recombinant human IL-1β. Description: BIAcore, Fab′ captured by anti-hF(ab′)2, IL-1β titrated in solution, 25 °C. How it is done: Affinipure goat anti-human IgG, F(ab′)₂ fragment-specific (Jackson ImmunoResearch Code 109-005-097) was immobilised on flowcell 2 of a CM5 Sensor Chip via amine coupling chemistry to a level of 13025RU. A blocked reference surface was prepared on flowcell 1 by activation with EDC/NHS and deactivation with ethanolaomine using the same volumes as for flowcell 2. HBS-EP buffer (10 mM HEPES pH 7.4, 0.15 M NaCl, 3 mM EDTA, 0.005% Surfactant P20, Biacore AB) was used as the running buffer and assays were performed at 25° C. Anti-IL-1β antibody was passed over flowcells 1 and 2 and captured on the immobilised anti-hF(ab′)₂ surface using a flowrate of 10 μl/min. IL-1β (Strathmann) from 400-0 nM was injected over the blocked and captured anti-IL-1β antibody surface using a flowrate of 30 μl/min for 3 min. The anti-hF(ab′)₂ surface was regenerated with a 30 μl injection of 40 mM HCl followed by a 15 μl injection of 5 mM NaOH. Kinetic parameters were calculated using BIAevalutation 3.1 software.
In general terms: Surface plasmon resonance follows binding to a sensor surface in real time, without labels.
Turning to B10, the Kd is 0.32 nM.

A further test has as its target T1, recombinant human IL-1β. Description: BIAcore, captured antibody, IL-1β titrated in solution, 25 °C.
Regarding B11, the Kd is 0.3 nM.
